Measurements reported in patent publication US7410774B1, “Compounds modulating sister chromatid separation and method for identifying same” (Boehringer Ingelheim International GmbH, priority 1999, dated 2008).

T1: Purified recombinant Scc1 with C-terminal FLAG epitope, from okadaic acid treated insect cells, mitotically phosphorylated form, Q12158
T1 chain: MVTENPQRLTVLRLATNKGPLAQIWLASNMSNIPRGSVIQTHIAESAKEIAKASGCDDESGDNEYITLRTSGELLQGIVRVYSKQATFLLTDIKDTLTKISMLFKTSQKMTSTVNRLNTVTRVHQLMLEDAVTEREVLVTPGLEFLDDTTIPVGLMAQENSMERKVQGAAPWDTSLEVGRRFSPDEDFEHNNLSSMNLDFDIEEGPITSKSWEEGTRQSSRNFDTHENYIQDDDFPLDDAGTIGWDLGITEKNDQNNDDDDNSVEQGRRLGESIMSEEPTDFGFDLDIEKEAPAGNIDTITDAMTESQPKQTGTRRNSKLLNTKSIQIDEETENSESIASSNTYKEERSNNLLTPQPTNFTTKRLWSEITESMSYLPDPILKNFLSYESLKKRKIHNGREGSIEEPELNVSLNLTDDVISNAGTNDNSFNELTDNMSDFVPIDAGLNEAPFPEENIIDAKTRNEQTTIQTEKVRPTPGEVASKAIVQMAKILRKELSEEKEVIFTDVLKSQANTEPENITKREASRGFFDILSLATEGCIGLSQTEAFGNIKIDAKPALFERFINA

T2: Scc1p R180D R268D double mutant, HA tagged (non-cleavable Scc1p), Q12158
T2 chain: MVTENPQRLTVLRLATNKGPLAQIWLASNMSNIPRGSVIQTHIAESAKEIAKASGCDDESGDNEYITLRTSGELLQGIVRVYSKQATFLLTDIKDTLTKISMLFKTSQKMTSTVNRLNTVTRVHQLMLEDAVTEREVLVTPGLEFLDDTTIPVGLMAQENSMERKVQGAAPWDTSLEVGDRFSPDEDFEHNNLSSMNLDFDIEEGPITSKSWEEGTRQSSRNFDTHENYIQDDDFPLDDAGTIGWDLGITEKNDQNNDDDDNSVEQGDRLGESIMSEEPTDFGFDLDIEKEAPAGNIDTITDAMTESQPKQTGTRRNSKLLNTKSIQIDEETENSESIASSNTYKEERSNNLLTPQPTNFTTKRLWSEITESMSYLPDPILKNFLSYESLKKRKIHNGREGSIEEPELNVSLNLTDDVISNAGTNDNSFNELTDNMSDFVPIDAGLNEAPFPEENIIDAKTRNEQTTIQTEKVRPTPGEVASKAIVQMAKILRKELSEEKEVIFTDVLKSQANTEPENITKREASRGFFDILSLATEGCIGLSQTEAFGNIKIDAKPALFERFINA

T3: Scc1p tagged with myc epitopes at the C-terminus (endogenous wild type), Q12158
T3 chain: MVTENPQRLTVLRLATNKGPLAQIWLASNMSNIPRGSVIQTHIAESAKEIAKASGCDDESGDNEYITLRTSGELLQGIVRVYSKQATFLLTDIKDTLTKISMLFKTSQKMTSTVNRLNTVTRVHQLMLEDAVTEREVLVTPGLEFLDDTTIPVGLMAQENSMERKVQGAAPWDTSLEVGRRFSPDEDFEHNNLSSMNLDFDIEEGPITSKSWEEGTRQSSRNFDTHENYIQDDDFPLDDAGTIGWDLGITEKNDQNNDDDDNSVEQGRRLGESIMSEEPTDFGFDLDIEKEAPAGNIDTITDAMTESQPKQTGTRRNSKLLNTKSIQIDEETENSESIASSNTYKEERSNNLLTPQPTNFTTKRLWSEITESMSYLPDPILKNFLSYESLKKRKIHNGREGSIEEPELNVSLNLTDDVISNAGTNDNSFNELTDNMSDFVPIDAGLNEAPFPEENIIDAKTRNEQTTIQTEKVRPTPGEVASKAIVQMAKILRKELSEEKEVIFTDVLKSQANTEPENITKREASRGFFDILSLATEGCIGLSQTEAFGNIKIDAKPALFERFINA

T4: Scc1p tagged with multiple HA epitopes, chromatin-bound (chromatin of nocodazole-arrested yeast), Q12158
T4 chain: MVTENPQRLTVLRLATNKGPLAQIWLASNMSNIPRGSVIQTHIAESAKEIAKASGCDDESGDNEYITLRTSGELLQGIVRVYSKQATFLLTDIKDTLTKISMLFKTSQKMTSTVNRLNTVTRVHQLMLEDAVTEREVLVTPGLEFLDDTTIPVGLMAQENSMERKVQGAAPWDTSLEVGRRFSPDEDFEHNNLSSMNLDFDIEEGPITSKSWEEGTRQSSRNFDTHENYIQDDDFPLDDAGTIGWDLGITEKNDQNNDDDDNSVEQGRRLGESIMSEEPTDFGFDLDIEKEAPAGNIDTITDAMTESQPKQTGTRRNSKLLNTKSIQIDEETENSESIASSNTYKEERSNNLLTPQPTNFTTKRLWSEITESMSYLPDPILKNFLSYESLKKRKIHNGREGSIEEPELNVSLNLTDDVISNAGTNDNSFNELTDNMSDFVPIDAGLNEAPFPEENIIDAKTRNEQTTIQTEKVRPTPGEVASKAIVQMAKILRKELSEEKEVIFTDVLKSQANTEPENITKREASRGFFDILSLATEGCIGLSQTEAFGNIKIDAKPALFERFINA

T5: Purified recombinant Scc1 with C-terminal FLAG epitope, from baculovirus-infected insect cells, unphosphorylated, Q12158
T5 chain: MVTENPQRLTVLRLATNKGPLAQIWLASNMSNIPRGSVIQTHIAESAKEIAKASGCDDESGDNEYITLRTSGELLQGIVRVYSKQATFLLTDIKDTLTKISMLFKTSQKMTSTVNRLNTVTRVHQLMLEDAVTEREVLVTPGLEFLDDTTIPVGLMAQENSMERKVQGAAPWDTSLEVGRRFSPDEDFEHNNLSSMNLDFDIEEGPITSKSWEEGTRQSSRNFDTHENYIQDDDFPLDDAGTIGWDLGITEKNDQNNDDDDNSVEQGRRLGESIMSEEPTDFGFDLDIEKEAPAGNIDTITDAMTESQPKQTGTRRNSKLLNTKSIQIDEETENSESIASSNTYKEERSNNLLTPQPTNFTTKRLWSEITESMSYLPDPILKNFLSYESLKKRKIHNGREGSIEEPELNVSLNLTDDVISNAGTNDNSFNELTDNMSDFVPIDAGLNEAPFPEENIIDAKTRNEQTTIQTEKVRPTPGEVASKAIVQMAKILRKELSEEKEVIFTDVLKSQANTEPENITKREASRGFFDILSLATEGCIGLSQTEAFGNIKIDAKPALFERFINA

T6: Scc1p with arginine 268 mutated to aspartic acid, HA tagged, Q12158
T6 chain: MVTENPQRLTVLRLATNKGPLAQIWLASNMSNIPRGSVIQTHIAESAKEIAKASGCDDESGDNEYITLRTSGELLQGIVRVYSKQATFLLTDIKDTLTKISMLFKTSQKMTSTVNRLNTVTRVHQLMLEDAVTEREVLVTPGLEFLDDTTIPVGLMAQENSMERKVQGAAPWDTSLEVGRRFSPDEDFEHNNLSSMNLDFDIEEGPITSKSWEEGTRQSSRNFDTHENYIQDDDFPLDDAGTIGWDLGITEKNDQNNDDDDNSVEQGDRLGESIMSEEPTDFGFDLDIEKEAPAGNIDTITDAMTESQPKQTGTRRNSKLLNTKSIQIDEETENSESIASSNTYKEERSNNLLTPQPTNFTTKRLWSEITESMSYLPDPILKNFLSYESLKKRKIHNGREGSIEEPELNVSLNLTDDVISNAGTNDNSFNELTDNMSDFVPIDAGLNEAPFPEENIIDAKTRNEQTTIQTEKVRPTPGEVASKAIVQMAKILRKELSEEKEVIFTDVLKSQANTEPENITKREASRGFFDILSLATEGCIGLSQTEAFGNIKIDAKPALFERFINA


Legend:
[1] = system: HeLa cells; test: SCC1 cleavage and securin degradation in synchronized HeLa cells released into the cell cycle in the presence of nocodazole; format: cell-based, human; settings: double-thymidine synchronized, immunoblot
Experimental: For cell cycle synchronization, a double-thymidine treatment was used. HeLa cells were first treated with 2 mM thymidine for 18 h. Subsequently, cells were washed with PBS, fresh medium was added and the cells were grown for another 8 h. Then the cells were treated again with 2 mM thymidine for 18 h, subsequently washed and incubated in fresh medium. Samples were taken at different time points. Samples were splitted and used for FACscan analysis and for immunoblotting. Cell extracts were made with glass-teflon potters in ice cold buffer containing 50 mM Tris pH 7.7, 100 mM NaCl, 20 mM b-glycerophosphate, 5 mM MgCl2, 1 mM NaF, 0.1-0.2% Triton X-100, 10% Glycerol, 1 mM DTT and protease inhibitors).
In some experiments logarithmically growing HeLa cells were treated with 330 nM nocodazole dissolved in 0.1% DMSO for 18 hours, or cells synchronized by double-thymidine treatment were released into nocodazole-containing medium for different periods of time. […]
HeLa cells stably expressing SCC1-myc were synchronized by double-thymidine treatment and were released into the cell cycle in the presence of either DMSO (results shown in FIGS. 11A and C) or nocodazole dissolved in DMSO (results shown in FIGS. 11B and D). […] Cells were analyzed by FACsan (FIGS. 11A and B) and by immunoblotting of whole cell extracts using the indicated antibodies (FIGS. 11C and D). […]

[2] = system: HeLa cells; test: Association of human SCC1 with chromatin (quantitative immunoblotting of chromatin and supernatant fractions); format: cell-based; settings: HeLa cells arrested in metaphase by nocodazole (56% in logarithmically growing cells)
Experimental: In some experiments logarithmically growing HeLa cells were treated with 330 nM nocodazole dissolved in 0.1% DMSO for 18 hours, or cells synchronized by double-thymidine treatment were released into nocodazole-containing medium for different periods of time. In control experiments 0.1% DMSO was added without nocodazole. Chromatin and supernatant fractions were prepared from HeLa cells that were either growing logarithmically (log) or were arrested in metaphase with nocodazole (noc). Proteins from equivalent aliquots of these fractions were separated by SDS-PAGE and analyzed for the presence of SCC1 by immunoblotting using radiolabeled antibodies (FIG. 8, top panel), The intensities of the SCC1 bands were quantitated (FIG. 8, bottom panel).

[3] = target: T1, Purified recombinant Scc1 with …
[4] = target: T2, Scc1p R180D R268D double mutant, HA …
[5] = target: T3, Scc1p tagged with myc epitopes at the …
[6] = target: T4, Scc1p tagged with multiple HA epitopes, …
[7] = target: T5, Purified recombinant Scc1 with …
[8] = target: T6, Scc1p with arginine 268 mutated to …

Molecule | cleavage of SCC1 [1] | securin degradation [1] | amount of the total cellular SCC1 associated with chromatin [2] [%] | cleavage assay using purified Scc1 (Western blot, anti-FLAG) [3] | Scc1p cleavage in Esp1-containing extracts (chromatin substrate) [4] | Scc1p cleavage in Esp1-containing extracts (chromatin substrate) [5] | Scc1p cleavage and dissociation from chromatin in vitro (Western blot of chromatin and supernatant fractions) [6] | cleavage assay using purified Scc1 (Western blot, anti-FLAG) [7] | Scc1p cleavage in the Esp1 assay (chromatin substrate) [8]
COC(=O)Nc1nc2ccc(C(=O)c3cccs3)cc2[nH]1 [nocodazole] | no cleavage of SCC1 could be observed | not degraded | 13 | – | – | – | – | – | –
Esp1p (yeast separin), wild type, overproduced from the GAL1-10 promoter in yeast cell extract (protein) MMVKQEEPLNEISPNTPMTSKSYLLNDTLSKVHHSGQTRPLTSVLSGDASSNSIGILAMHNNIIRDFTKIASNNIDLAIEDITTVDHSLNSIYSLLKSHHMWGHINSTVKQHLMIIVKLINNNALGLASSEIIFLFNETNLFQAHSLKNILLADFSTWNDYYLSNLKILALQIILKRKLVDEYLPHILELFSHDKRYLLKDPNLKAHALTKIVLSFFSVTTSCKVLFGLKFLQYIKQFKLPFKKFISNITVECFSKNLLHKNYLEMGPNKIYLNSFYLSYSMLYDGLDKIMLLDILSYEETTEVQRAIKSKKEFNEYCNMSENRLLWSCISVDDLNVILENATNFLQNKGKHISATLKCLVCLWSTIRLEGLPKNKDILRQFDCTVIYINSNIKSINDESAAALLSELLGVLSEICIDYKEPKRLSNIISVLFNASVLFKSHSFLLKTANLEISNVLISNDSKTSHRTILKFEKFISSAQSAQKKIEIFSCLFNVYCMLRNDTLSFVFDFCQNAFIHCFTRLKITKFIEFSNSSEIMLSVLYGNSSIENIPSENWSQLSRMIFCSLRGIFDLDPLELNNTFDKLHLLNKYELLIRIVYLLNLDMSKHLTTNLSKITKLYINKWLQKSDEKAERISSFEMDFVKMLLCYLNFNNFDKLSIELSLCIKSKEKYYSSIVPYADNYLLEAYLSLYMIDDALMMKNQLQKTMNLSTAKIEQALLHASSLINVHLWDSDLTAFQIYFGKTLPAMKPELFDINNDHNLPMSLYIKVILLNIKIFNESAKLNIKAGNVISAVIDCRKAQNLALSLLKKKNKLSQGSRLALLKSLSFSFFQLIKIHIRIGSARDCEFYSKELSRIISDLEEPIIVYRCLHFLHRYYMITEQTCLQNITLGKANKAFDYLDAEADITSLTMFLYDNKEFVKLEQSLVLYFGDQLEKTFLPNLWKLHLGKDIDDSICLSEYMPKNVINRVHNMWQKVMSQLEEDPFFKGMFESTLGIPSSLPVIPSTMPNNILKTPSKHSTGLKLCDSPRSSSMTPRGKNIRQKFDRIAAISKLKQMKELLESLKLDTLDNHELSKISSLSSLTLTILSNITSIHNAESSLITNFSLTDLPRHMPLLFDKVLNNIDNKNYREFRVSSLIAPNNISTITESIRVSAAQKDLMESNLNINVITIDFCPITGNLLLSKLEPRRKRRTHLRLPLIRSNSRDLDEVHLSFPEATKKLLSIINESNQTTSVEVTNKIKTREERKSWWTTRYDLDKRMQQLLNNIENSWFNGVQGFFSPEVVDNSLFEKFKDKFYEILHQNLPSRKLYGNPAMFIKVEDWVIELFLKLNPQEIDFLSKMEDLIYFVLDILLFHGEENAYDEIDFSMLHVQLEEQIKKYRATMTTNSIFHTFLVVSSSCHLFPWECLSFLKDLSITRVPSYVCLNKLLSRFHYQLPLQVTIEDNISMILNPNGDLSRTESKFKGMFQKIIDAKPSSQLVMNEKPEEETLLKMLQNSNLFVYIGHGGGEQYVRSKEIKKCTKIAPSFLLGCSSAAMKYYGKLEPTGTIYTYLLGGCPMVLGNLWDVTDKDIDKFSEELFEKMGFRCNTDDLNGNSLSVSYAVSKSRGVCHLRYLNGAAPVIYGLPIKFVS | – | – | – | the efficiency of cleavage was much greater when Scc1 was in the mitotically phosphorylated state | HA tagged double mutant protein was no longer cleaved when incubated in Esp1-containing extracts | the myc tagged wild type protein was efficiently cleaved | most disappears from the chromatin fraction upon incubation with extracts containing high levels of wild type Esp1 protein | Both unphosphorylated and phosphorylated purified Scc1 were cleaved in an Esp1-dependent manner in vitro | cleavage at site 268 was indeed eliminated by the aspartic acid mutation. However, the mutated protein was still cleaved in an Esp1-dependent manner
